{"source": "patent EP1117807B1", "molecular_target": "HMW protein antigen of the anti-HMW EIA", "assay": "antigen-specific EIA, control chinchilla serum IgG titer on coated antigen, second experiment", "data": [{"substance": "serum of control chinchillas immunized with alum alone (antibody)", "values": [{"measurement": "Anti-HMW antibody titers Log2 (Titers/100) (Log2 (Titers/100))", "result": "< 0.05"}]}]}
